Test results reported in publication PMC12151379, “The liprin-α/RIM complex regulates the dynamic assembly of presynaptic active zones via liquid–liquid phase separation” (PLOS Biology, 2025).

Target: the molecule itself
Experiment: SEC-MALS; 100 μl sample (individual proteins or mixture, up to 500 μM) on Superdex 200 Increase 10/300 GL in TBS

B1: liprin-α2_CC2 (residues 259–542) (domain or fragment, human, UniProt O75334 259-542, looked up)
chain: GSIDSTDETSQIVELQELLEKQNYEMAQMKERLAALSSRVGEVEQEAETARKDLIKTEEMNTKYQRDIREAMAQKEDMEERITTLEKRYLSAQRESTSIHDMNDKLENELANKEAILRQMEEKNRQLQERLELAEQKLQQTMRKAETLPEVEAELAQRIAALTKAEERHGNIEERMRHLEGQLEEKNQELQRARQREKMNEEHNKRLSDTVDRLLTESNERLQLHLKERMAALEEKNVLIQESETFRKNLEESLHDKERLAEEIEKLRSELDQLKMRTGSLIEP
notes: liprin-α2, human, GenBank AF034799.1, CC2 region, residues 259–542; Dimeric by SEC-MALS at 500 μM; source: E. coli BL21(DE3), purified (Ni-NTA, SEC)
stoichiometry N: 2
